Measurements published in the nanobody polyreactivity screen of Harvey et al. (2022).

Assay: yeast display, Sf9 membrane polyspecificity reagent, FACS + sequencing; frameworks hold sequencing errors
In short: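 Sorting gates, low and high (top ~1%), were placed on anti-HA fluorescence to track expression and on streptavidin fluorescence to track reagent binding. A clone's polyreactivity label is taken from the gate it came out of. The reagent was 10% biotinylated, detergent-solubilized Sf9 membrane, applied for 1 hour at 4 °C to galactose-induced yeast display cells.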

| Sequence | polyreactivity (PSR sort gate) |
| --- | --- |
| QVQLVESGRGLVQAGGSLRLSCAASGFTFSYYAKGWYRQAPGKEREFVAAISWSGGSTYYADSVKGRFTLSRDNAKNTVYLQMNSLKPEDTAVYNSAARSTGGSPGRRFTRGYDYWGQGTQVTVSS | high polyreactivity |
| QVQLVESGGGLVQAGGSLRLSCAASGRTFGKNAMGWYRQAPAKERELVAAISWGGGRTFYADSVKGRFTISRDNAKNTVYLQMNSLKPEDTAVYYCNAVQYPRRAKYDYWGQGTQVTVSS | low polyreactivity |
| QVQLVESGGGLVQAGGSLRLSCAASGSIFYHYAMGWYRQAPGKERELVAAISDRGTSTYYADSVKGRFTISRDNAKNTVYLQMNSLKPEDTAVYYCAAEGSLNSFYYSYYYWGQGTQVTVSS | high polyreactivity |
| QVQLVESGGGFVQAGGSLRLSCAPSGRIFLRNDMGWYRQAPGKEREWVAGISWRGGRTYYADAVKGRFTISRDNAKNTVYLQMNSLKPEDTAVYYCNADKDETSGGKYDSWGQGTQVTVSS | low polyreactivity |
| QVQLVESGGGLVQAGGSLRLSCAASGSIFLWYAMGWYRQAPGKERELVAAIDWSGGSTYYADSVKGRFTISRDNAKNTVYLQMNSLKPEDTAGYDCAAEWGNWYWWDYGYDYYYWGQGTQVTVSS | high polyreactivity |
| QDKLVESGGGLVQAGGSLRLSCAASGSTSRDNAMVWYRQAPGKERELVAAITVIDGTTYYADSVKGRFTISRDNAKNTLYLQMNSLKPEDTAVYYCAADTIWFEYYYWGQGTQVTVSS | low polyreactivity |
| QVQLVESGGGLVQAGGNLRLSCAASGFIFTRYAMGWYRQAPGKERELVAAISTSGDRTYYADSVKGRFTISRDNAKNTVYLQMNSLKPEDTAVYYCAVEASRAGAWYEYWGQGTQVTVSS | high polyreactivity |
| QVQLVESGGGLVQAGGSLRLSSAASGSTFKYYAMGWYRPDPGKERELVAAIRTSGGRTYYADSVKGRFTISRDNAKNTVDLQMNSLKPEDSAVYFCNARYNQFGQRFDYWGQGSQVTVSS | high polyreactivity |
| QVQLVESGGGLVQAGGSLRLSCAASGSTFRVYAMGWYRQAPGKERELVAAITRSGGRTHYADSVKGRFTISRDNAKNTVYLQMNSLKPEDTAVYYCAARFYYTKPEDYYWGQGTQVTVSS | high polyreactivity |
| QVQIVESWGGLVQAGGSLRLSCAASGSTIYTYPMGWYRQAPGKERELFAAISYRGGSTYYADSVKVRYSISRDNAKNTVYLQMKSLKPEDTAVYYCNVDGVVVGTKRGGYDYWGQGTQVTVSS | low polyreactivity |
| QVQLVESGGGLVQAGGSLRLSCAASGSTFPAYTMGWYRQAPGKERELVAAINVSSGGSTYYADSVKGRFTISRDNAKNTVYLQMNSLKPEDTAVYYCATRYVTTGYDYWGQGTQVTVSS | low polyreactivity |
| QFQLVESGGGLVQAGVSLRLSCAASGRIFSHYAMGWYRQAPGKERELVAASSSGGITYYADSVKGRFTISLDNAKNTVYLQMNCQKPEDTAVYYCAAVRRRGTTYDYWGQGTQVTVSS | high polyreactivity |
| QVQLVESWGGLVQAGGSLRLSCAASGSTLGNNGMGWYRQAPGKERELVAAIDSTVTTNYADSVKGRFTISRDNAKKSVYLHMNSLKPEDTAVYYCAADYWGQGTQVTVSS | low polyreactivity |
| QVQLLESGGGLVQAGGSLRLSCMASGSILGDRMSWYRQAPGKEHELVATIYDGGITYYADSMKGRFTISRDNAKNTLYLQMNSLRPEDTAVYYCGACFEGYRYHVYCGQGTQVTVSS | low polyreactivity |
| QVQLVESGGGLVQAGGSLRLSCAASGSIFIYNAMGWYRQAPGKERELVAAINWTGGSTYYADSVKGRFTISRDNAKNTVYLQMNSLKPEDTAVYYCNALRYGSTRGYDYWGQGTQVTVSS | high polyreactivity |
| QVQLVESGGGLVQAGGSLRLSCAASGLIFIVNAMGWYRQAPGKDRELVAAISSGGSTNYADSVKGRFTISRDNAKNTVYLQMNSLKPEDTAVYYCNAGRGPITQNVGSLAYRSDYWGQGTQVTVSS | low polyreactivity |
| QVQLVESGGGLVQAGGSLRLSCAASGSIFLQYAMGWYRQAPGKERELVAAISWSGGSTYYADSVKGRFTISRDNAKNTVYVQMNSLKPEDTAVYYCAAPITPYRHYRMDYWGQGTQVTVSS | low polyreactivity |
| QVQLVESGGGLVQAGGSLRLSCAASGSILTRYAMGWYRQAPGKERELVAANTYSGDSTYYADSVKGRFTISRDNAKNTVYLQMNSLKPEDTAVYYCAARKYYARYYWGQGTQVTVSS | high polyreactivity |
| QVHLVESGGGLVQAGGSLRLSCAASGGIFDPYAMGWYRQAPGKERELVAAITNSGGSTYYADTLKGRFTISRDNAKNTVDLQMNSLKPEDTAVSYCAAEGLYVGYDYWGQGTEVTVSS | low polyreactivity |
| QVQLVESGGGLVQAGGSLRLSSAGSGSIFTGYAMGWYRPAPGKERELVAAIRTRGGSTYYADSVKGRFTISRDNAKNTVYLQMNSLKPEDNAVYYCANRYFGWYGNFDDWGQGTQVTVSS | high polyreactivity |
| QVQLVESGGGLVQEGGSLRLSCAASGRIFGTNAMGWYRQAPGKERELVAAISRSGGSTYYADSVKGRFTISRDNAKNTVYLQMNSLKPEDTAVYYCATDGRHTYYYWGQGTQVTVSS | high polyreactivity |
| QVQLVESGGGLVQAGGSLRLSCAASGSTFSVNAMGWYRQAPGKEREFVAAITYSGGSTYYADSVKGRFTISRDNAKNTVYLQMNSLKPEDTAVYYCNRDTRYYWKRYGYWGQGTQVTVSS | high polyreactivity |

| Sequence | polyreactivity (PSR sort gate) |
| --- | --- |
| QVQLVESGGGLVQAGGSHRLSCAASGRIFALNTMRWYRQAPGKEREFVAAITTSGGSTYADSVKGRFTISRDNAKNTVYLQMNSLKPEDTAVYYCNKEYYHKWAPTYDYWGQGTEVTVSS | low polyreactivity |
| QVQLVESGGGLVQAGGSLRLSCAASGRTFFIYAMGWYRQAPGKERELVAAISNGGSTNYADSVKGRFTISRDYAKNTVYLQMISLKPEDTAVYYCAAQYIGNLRGVFHYEFDWGQGTQVTVSS | high polyreactivity |
| QVQHVESGGGIVQAGGSLRLSCAASGLTFVYYAMGWYRQAPGTERELVAAISSGGRTYYADSVKGRFTISRDNAKKTVYLQMNSLKPDDTAVYYCAAYGGTHYTYRYDYWGQGTQVTVSS | high polyreactivity |
| QVQLVESGGGLVQAGGSLRLSCAPSGITFGEYAMGWYRPAPGKERELVAAISRSGGSTYADSVKGRFTISRDNAKNTVYLQMNSLKPEDTAVYYCAAYSGVGYLWFDYWGQGTQVTVSS | low polyreactivity |
| QVQHVESGGGLVQAGGSLRLSCAASGRIFSYYAMGWYRQAPGKERELVAVISRRGDNTYYADSVKGRFTISRDNAKKTVYLQMNSLKPEDTAVYYCAARFGYLTFYSSGYYWGQGTQVTVSS | high polyreactivity |
| QVQLVESGGGLVQAGGSLRLSCAASGSIFSANAMGWYRQAPGKERELVAAIRRTGGSTYYADSVKGRFTISRDNAKNTVYLQMNSLKPEDTAVYFCTKRHSILYEGGYDYWGQGTQVTVSS | low polyreactivity |
| QVQLVESGGGLVQAGGSLRLSCAASGSTIRGYAMGWYRQAPGKEREFVAAITVNGGNTYYADSVKGRFTISRDNAKNTVYLQMNSLKPEDTAVYYCNVPVTVGKDSITEHYYWGLGTQVTVSS | low polyreactivity |
| QVQLEESGGGLVQAGGSLRLSCAASGSIFRGYAMGWYRQAPGKERELVAAINWSGSSTYYADSVKGRFTISRDNAKNTVYLQMNSPKPEDTAVYYCARVYYNRNLGGDYWGQGTQVTVSS | low polyreactivity |
| QVQLVESGGGLVQAGGSLRLSCAASGRTFLHYAMGWYRQAPGKEREFVAAIRTSGTSTYYADSVKGRFTISRDNAKNTVYLQMNSLKPEDTAVYYCAVARGSGWYWRSDYWGQGTQVTVSS | high polyreactivity |
| QVQLVESGGGLVQAGGSLRLSCAASGSTLGRYTLGWYRQAPGNERELVAAIRASGTSTYYADSVKGRFTISRDNAKNTVYLQMNSLKPEDTAVYYCNALQFGTVRLDSWGQGTQVTVSS | low polyreactivity |
| QVQLVESGGGLVQAGGSLRLSCAASGITFRSYAMGWYRQAPGKERELVATISWSGGITYYADSVKGRFTISRDNAKITVYLQMNSLKPEDTAVYYCAKASQSWGRDDYYYWGQGTQLTVSS | low polyreactivity |
| QVQLVESGGGLVQAGGSLRLSCAASGRTFYDYAMGWYRQAPGKERELVASIRGSDGSTYYADSVKGRFTISRDNAKNTVYLQMNSLKPEDTEVYYCAARGFYGTNGRVYITSYYYWGQGTQVTVSS | high polyreactivity |
| QVQLVESGGGLVQAGGSLRLSCDASGSIFGINVMGWYRQAPGTERELVARINDGADTNYADSVKGRFTISRDNAKNTVYLQMNSLKPEDTAVYYCAKPYYDGRTHFDSWGQGTQVTVSS | low polyreactivity |
| QVQLVESGGGLVQAGGSLRLSCAASGSIFGQYAMGWYRQAPGKERELVAAISTRGGSTRYADSVKGRFTISRDNAKNTVYLQMNSLKPEDTAVYYCAARVPYIRHLAVDYWGQGTQVTVSS | high polyreactivity |
| QVQLVESGGGLVQAGGSLRLSCAASGFIFVRNAMGWYRQAPGKERELVAAISSRGGRTYYADSVKGRFTISRDNAKNTVYLQMNSLKPEDTAVYYCNADRDTQGDGYDYWGQGTQVTVSS | high polyreactivity |
| QVQLVESGGRLVQAGGSLLLSCAASGFTFDDYAMGRYRQAPGTERELVASITTSGASKYYADSVKGRFTISRDNAKNPVYLQMNSLKPEDTAVYYCAVDNDSYTSPRAGDDYWGQGTQVTVSS | low polyreactivity |
| QVQLVESGGGLVQAGGSLRISCAASGSIFLSNMGWYRQAPGNERELVAAITIGGSTDYADSVKGRFTISRDNAKNTVYLQMNSLKPEDTAVYYCNADNPYSDGADSLGNYWGQGTQVTVSS | low polyreactivity |
| QVQLVESGGGLVQAGGSLRLSCAASGRTFDNNAMGWYRQAPGKERELVAAINWSGVRTYYADSVKGRFTISRDNAKNTVYLQMNSLKPEDTAVYYCNTVSASYYYRYNSWGQGTQVTVSS | high polyreactivity |
| QGQLVESGGGLVQAGGSLRLSCAASGLTFGYYDMGWYRQAPGKERELVAAITVRGGSTYYADSVKGRFTISRDNAKNTVYLQINSLKPEDTAVYYFNKRLFWSRHYYYWGQGTQVTVSS | high polyreactivity |
| QVQLVESGGGLVQAGGSLRLSCAASGRTFVYNAMGWYRQAPGKERELVAGITGSGDSTYYADSVKGRFTISRDNAKNTVYLQMNSLKPEDTAVYYCNQLVEEDYWGQGTQVTVSS | low polyreactivity |
| QVQLVESGGCLVQAGGSLRLSCAASGRTFPLYAMGWYRQAPGKERELVASITNGGNTNYADSVKGRFTISRDNEKNTVYLQMNSLKPEDTAVYYCAAQTFGYGFGGGDYWGQGTQVTVSS | low polyreactivity |
